Laboratory results: PMC2494773 (American Journal of Physiology. Heart and Circulatory …, 2008)

Tests used:
[1] = biological target: the molecule itself; experiment: non-reducing SDS-PAGE and immunoblot
SEC = biological target: the molecule itself; experiment: SEC

B1: peroxiredoxin 1 (Prdx1), rat heart (natural protein, rat (endogenous in heart), UniProt Q63716 1-199, looked up)
chain: MSSGNAKIGHPAPSFKATAVMPDGQFKDISLSDYKGKYVVFFFYPLDFTFVCPTEIIAFSDRAEEFKKLNCQVIGASVDSHFCHLAWINTPKKQGGLGPMNIPLVSDPKRTIAQDYGVLKADEGISFRGLFIIDDKGILRQITINDLPVGRSVDEILRLVQAFQFTDKHGEVCPAGWKPGSDTIKPDVNKSKEYFSKQK
**Q.** With B1 as the protein, how does the “stoichiometry N” value [1] read?
**A.** 2

B2: peroxiredoxin 2 (Prdx2), rat heart (natural protein, rat (endogenous in heart), UniProt P35704 1-198, looked up)
chain: MASGNAHIGKPAPDFTGTAVVDGAFKEIKLSDYRGKYVVLFFYPLDFTFVCPTEIIAFSDHAEDFRKLGCEVLGVSVDSQFTHLAWINTPRKEGGLGPLNIPLLADVTKSLSQNYGVLKNDEGIAYRGLFIIDAKGVLRQITVNDLPVGRSVDEALRLVQAFQYTDEHGEVCPAGWKPGSDTIKPNVDDSKEYFSKHN
**Q.** How did the “stoichiometry N” value (SEC) turn out when B2 was run?
**A.** 10

**Q.** What about the “stoichiometry N” value [1] of the same protein?
**A.** 2
